Measured values taken from FireProtDB (doi:10.1002/pro.343).

B1: Multidrug resistance operon repressor, P52003 (parent)
chain: MNYPVNPDLMPALMAVFQHVRTRIQSELDCQRLDLTPPDVHVLKLIDEQRGLNLQDLGRQMCRDKALITRKIRELEGRNLVRRERNPSDQRSFQLFLTDEGLAIHQHAEAIMSRVHDELFAPLTPVEQATLVHLLDQCLAAQPLEDI

Variants of: B1
Conditions: Pseudomonas aeruginosa (strain ATCC 15692 / DSM 22644 / CIP 104116 / JCM 14847 / LMG 12228 / 1C / PRS 101 / PAO1); pH 7.2; Thermal; CD; Sodium phosphate 10 mM; structure 1LNW; whole UniProt chain shown

| Variant | Tm [°C] |
| --- | --- |
| L13M | 47.8 |

Same assay, conditions: Pseudomonas aeruginosa (strain ATCC 15692 / DSM 22644 / CIP 104116 / JCM 14847 / LMG 12228 / 1C / PRS 101 / PAO1); pH 7.2; 22 °C; GdnHCl; CD; Sodium phosphate 10 mM; transition: 3; structure 1LNW; whole UniProt chain shown

| Variant | denaturant midpoint (higher = more stable) [M] |
| --- | --- |
| R21W | 2.6 |
